Reference: patent publication US8163516B2 (Algenol Biofuels Inc., priority 2008, dated 2012)
Where two headings read alike, the source gives them in different places. Values belong to the molecule of their own block, whether it stands above or below them.

Legend:
[1] = tested on: Zymomonas mobilis ADH II (ZmAdhII); conditions: literature values; ranges given jointly for ADH I and ADH II; cited from earlier work
[2] = tested on: Zymomonas mobilis ADH I (ZmAdhI, AAV89860), SEQ ID NO:2; conditions: literature values; ranges given jointly for ADH I and ADH II; cited from earlier work
[3] = molecular target: T1, Synechocystis sp. PCC 6803 alcohol dehydrogenase SynAdh (slr1192, BAA18840), wild type, SEQ ID NO:4, overexpressed, crude extract (Synechocystis sp. PCC 6803, UniProt P74721); experiment: Acetaldehyde reduction by crude extract of Synechocystis overexpressing SynAdh, varied cosubstrate (Lineweaver-Burk); format: biochemical; conditions: pH 6.1
T1 construct: PCC 6803; crude cell extract
T1 sequence (P74721 1-336): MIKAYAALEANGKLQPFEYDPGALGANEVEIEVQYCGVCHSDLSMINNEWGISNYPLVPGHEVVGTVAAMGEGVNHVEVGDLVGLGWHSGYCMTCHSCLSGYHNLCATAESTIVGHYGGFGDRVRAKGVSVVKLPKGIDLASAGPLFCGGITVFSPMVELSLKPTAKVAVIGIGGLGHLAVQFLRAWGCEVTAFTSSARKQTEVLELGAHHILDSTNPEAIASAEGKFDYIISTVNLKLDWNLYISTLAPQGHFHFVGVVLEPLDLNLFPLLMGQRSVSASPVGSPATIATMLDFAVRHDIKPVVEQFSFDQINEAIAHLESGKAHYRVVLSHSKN
Procedure: The Adh enzyme from Synechocystis was further characterized by preparing crude cell extracts from Synechocystis PCC6803 overexpressing SynAdh.
For preparation of crude extracts, cells were pelleted, dissolved in buffer supplemented with 1 mM DTT and broken (beadbeater, 2×10 min, glass beads with 100 μm diameter). The supernatant of a centrifugation (15 min, 14000 rpm, 4° C., Micro 200R, Hettich) was used for the experiments.
The Adh activity was measured as rate of the increase of the absorbance at 340 nm. […] The reaction was started by addition of an acetaldehyde solution to a final concentration of 0.125 mM and the rate of decrease of the absorbance at 340 nm was measured. […] Protein was determined by the method of Lowry.
Measurements were performed at pH 6.1.

[4] = tested on: Zymomonas mobilis ADH II (with Pdc) in intact Synechocystis PCC 6803 cells, strain 6803-pVZ-PisiA (pVZ-PisiA-Pdc-AdhII); experiment: Ethanol production by intact cells of strain 6803-pVZ-PisiA after addition of acetaldehyde (Lineweaver-Burk); format: cell-based, Synechocystis PCC 6803 (Zymomonas mobilis AdhII)
Procedure: Methods: Synechocystis PCC 6803 wild type and the transgenic strain “6803-pVZ-PisiA”, corresponding to the above described Synechocystis pVZ-PisiA-Pdc-AdhII, were washed twice with BG11 (centrifugation 15 min, 4500 rpm, 4° C.; Rotina 420R, Hettich) and redissolved in BG11. Aliquots of 2 ml were spiked with acetaldehyde. The assays were incubated at room temperature under illumination. Samples of 250 μl were removed in defined time intervals (5 min or 10 min) and centrifuged (3 min, 14000 rpm, room temperature, Micro 200R, Hettich).
Ethanol was quantified with a described protocol. The method is based on oxidation of ethanol catalyzed by alcohol dehydrogenase (Sigma, Adh of S. cerevisiae). NADH formed in this reaction, reacts with the PMS/MTT reagent to a dye.
OD750 of the culture was 0.56.
This experiment was repeated with a different culture of strain 6803-pVZ-PisiA of OD750 of 1.353 and a chlorophyll concentration of 4.6 μg/ml. Similar results were obtained.

[5] = tested on: Zymomonas mobilis ADH II, crude extract of Synechocystis strain 6803-pVZ-PisiA (pVZ-PisiA-Pdc-AdhII); experiment: Adh activity of crude extract of strain 6803-pVZ-PisiA in the direction of ethanol formation (Lineweaver-Burk); format: biochemical; conditions: for Km: read-out: Km for acetaldehyde
Procedure: For preparation of crude extracts, cells were harvested, washed with 40 mM MES/Tris (pH 6.5), 1 mM DTT and broken (beadbeater, 2×10 min). The supernatant of a centrifugation (15 min, 14000 rpm, 4° C., Micro 200R, Hettich) was used for the determination of Adh activity in cells.
The initial velocity was calculated from the dE/min at 340 nm.
In order to compare the dates acquired with intact cells, the kinetic constants of alcohol dehydrogenase in crude extracts of strain 6803-pVZ-PisiA were measured. […] A graphical representation of the results obtained is given in form of a “Lineweaver-Burk” plot (FIG. 8).
In a second experiment the Adh activity was measured at pH 7.5. NADH and NADPH were used as co-substrates.

[6] = substrate: NC(=O)C1=CN([C@@H]2O[C@H](COP(=O)(O)OP(=O)(O)OC[C@H]3O[C@@H](n4cnc5c(N)ncnc54)[C@H](O)[C@@H]3O)[C@@H](O)[C@H]2O)C=CC1; experiment: cells, lysate or membranes; conditions: other: acetaldehyde reduction, crude extract, pH 6.1
[7] = substrate: NC(=O)C1=CN([C@@H]2O[C@H](COP(=O)(O)OP(=O)(O)OC[C@H]3O[C@@H](n4cnc5c(N)ncnc54)[C@H](OP(=O)(O)O)[C@@H]3O)[C@@H](O)[C@H]2O)C=CC1; experiment: cells, lysate or membranes; conditions: other: acetaldehyde reduction, crude extract, pH 6.1
[8] = substrate: NC(=O)C1=CN([C@@H]2O[C@H](COP(=O)(O)OP(=O)(O)OC[C@H]3O[C@@H](n4cnc5c(N)ncnc54)[C@H](O)[C@@H]3O)[C@@H](O)[C@H]2O)C=CC1; experiment: purified protein, by the assay type; conditions: other: acetaldehyde reduction
[9] = substrate: CCO; experiment: purified protein, by the assay type; conditions: other: ethanol oxidation
[10] = substrate: NC(=O)c1ccc[n+]([C@@H]2O[C@H](COP(=O)([O-])OP(=O)(O)OC[C@H]3O[C@@H](n4cnc5c(N)ncnc54)[C@H](OP(=O)(O)O)[C@@H]3O)[C@@H](O)[C@H]2O)c1; experiment: purified protein, by the assay type; conditions: other: ethanol oxidation
[11] = substrate: NC(=O)c1ccc[n+]([C@@H]2O[C@H](COP(=O)([O-])OP(=O)(O)OC[C@H]3O[C@@H](n4cnc5c(N)ncnc54)[C@H](O)[C@@H]3O)[C@@H](O)[C@H]2O)c1; experiment: purified protein, by the assay type; conditions: other: ethanol oxidation
Procedure: (§1) Fraction 2 of the purification was used for the measurement of the kinetic parameters of the SynAdh as described in the following.
(§2) Both ethanol oxidation and acetaldehyde reduction were analyzed at different pH values. Experiments were made at pH 7.5 in presence of high concentrations of KCl in order to mimic the intracellular conditions.
For measurements at pH 8.5 HEPES/KOH was substituted by 30 mM Tris/HCl (pH 8.5), KCl was omitted.
(§3) The Km and vmax values of SynAdh for the different substrates were determined with Lineweaver-Burk plots.

[12] = substrate: NC(=O)C1=CN([C@@H]2O[C@H](COP(=O)(O)OP(=O)(O)OC[C@H]3O[C@@H](n4cnc5c(N)ncnc54)[C@H](OP(=O)(O)O)[C@@H]3O)[C@@H](O)[C@H]2O)C=CC1; experiment: purified protein, by the assay type; conditions: other: acetaldehyde reduction
[13] = substrate: CC=O; experiment: Acetaldehyde reduction (forward reaction) by purified SynAdh, Km determination; format: biochemical, Synechocystis sp. PCC 6803; conditions: other: acetaldehyde reduction
Procedure: as §1, §2
For measurements at pH 6.0 HEPES/KOH was substituted by 30 mM MES/KOH (pH 6.0), KCl was omitted.
as §3

[14] = pH 7.5, NADH 0.25 M or NADPH 0.21 M

Molecule: NC(=O)c1ccc[n+]([C@@H]2O[C@H](COP(=O)([O-])OP(=O)(O)OC[C@H]3O[C@@H](n4cnc5c(N)ncnc54)[C@H](O)[C@@H]3O)[C@@H](O)[C@H]2O)c1 [NAD^+, nicotinamide-adenine dinucleotide]
Km [1]: 110 µM
Km [2]: 73 µM

vmax for NADH [3]: 1.6 μMol min^−1 ml^−1 crude extract
Molecule: NC(=O)C1=CN([C@@H]2O[C@H](COP(=O)(O)OP(=O)(O)OC[C@H]3O[C@@H](n4cnc5c(N)ncnc54)[C@H](O)[C@@H]3O)[C@@H](O)[C@H]2O)C=CC1 [NADH, reduced nicotinamide-adenine dinucleotide]

Molecule: CCO [ethanol]
Km [1]: 140 µM
Km [2]: 24 µM

vmax for NADPH [3]: 0.4 μMol min^−1 ml^−1 crude extract
Molecule: NC(=O)C1=CN([C@@H]2O[C@H](COP(=O)(O)OP(=O)(O)OC[C@H]3O[C@@H](n4cnc5c(N)ncnc54)[C@H](OP(=O)(O)O)[C@@H]3O)[C@@H](O)[C@H]2O)C=CC1 [NADPH]

Molecule: CC=O [acetaldehyde]
Km ([4]; OD750 0.56): 18 µM
Vmax ([4]; OD750 0.56): 3.2 µmol/L/min
Vmax ([4]; repeat, OD750 1.353): 4.35 µmol/L/min
Km ([4]; repeat, OD750 1.353, chlorophyll 4.6 μg/ml): 25 µM
Vmax ([4]; repeat, using chlorophyll as reference): 0.95 µmol/L/mg
Vmax ([5]; pH 6.5, NADH in excess): 7.2 μMol L^−1 mg^−1 chlorophyll
Km ([5]; pH 6.5, NADH in excess): 45 µM
Vmax [5, 14]: 0.89 μMol L^−1 mg^−1 chlorophyll
Km [5, 14]: 100 µM

B1: Synechocystis sp. PCC 6803 alcohol dehydrogenase SynAdh (slr1192, BAA18840), wild type, SEQ ID NO:4, overexpressed, crude extract (Synechocystis sp. PCC 6803 … (protein)
chain: T1 sequence (P74721 1-336)
Km [6]: 1000 µM
Km [7]: 15 µM

B2: Synechocystis sp. PCC 6803 alcohol dehydrogenase SynAdh (slr1192, BAA18840), wild type, SEQ ID NO:4, purified (Synechocystis sp. PCC 6803 substr. Kazusa) (protein)
chain: T1 sequence (P74721 1-336)
Km ([8]; pH 7.5, 150 mM KCl, pH 7.5): 1000 μM μM
Km ([8]; purified enzyme): 1000 µM
Km ([9]; pH 7.5, 150 mM KCl, pH 7.5): 23 mM mM
Km ([9]; pH 8.5): 59 mM mM
Km ([10]; pH 7.5, 150 mM KCl, pH 7.5): 15 μM μM
Km ([10]; pH 8.5): 15 μM μM
Km ([11]; pH 7.5, 150 mM KCl, pH 7.5): 10 mM mM
Km ([11]; pH 8.5): 10 mM mM
Km ([12]; pH 6.0): 20 μM μM
Km ([12]; pH 7.5, 150 mM KCl, pH 7.5): 15 μM μM
Km ([12]; purified enzyme): 15 µM
Km ([13]; pH 6.0): 200 μM μM
Km ([13]; pH 7.5, 150 mM KCl, pH 7.5): 180 μM μM
Km ([13]; purified enzyme): 200 µM
